Reference: patent US12053530B2, “Plectin-1 binding antibodies and uses thereof” (ZIELBIO, INC., priority 2017, dated 2024)

Target: plectin-1 (human recombinant protein) (Homo sapiens, UniProt Q15149)
Experiment: Affinity of anti-plectin-1 antibodies (FIGS. 1A-1B)
Assay type: binding
Details: human recombinant protein and pancreatic cell lines
Source text: FIGS. 1A-1B show representative data for affinity and specificity of an anti-plec1 antibody on human recombinant protein (FIG. 1A) and human (YapC and L3.6pl) and mouse (Han14.3) pancreatic cell lines (FIG. 1B).

plectin-1 (human recombinant protein), sequence (Q15149 whole entry): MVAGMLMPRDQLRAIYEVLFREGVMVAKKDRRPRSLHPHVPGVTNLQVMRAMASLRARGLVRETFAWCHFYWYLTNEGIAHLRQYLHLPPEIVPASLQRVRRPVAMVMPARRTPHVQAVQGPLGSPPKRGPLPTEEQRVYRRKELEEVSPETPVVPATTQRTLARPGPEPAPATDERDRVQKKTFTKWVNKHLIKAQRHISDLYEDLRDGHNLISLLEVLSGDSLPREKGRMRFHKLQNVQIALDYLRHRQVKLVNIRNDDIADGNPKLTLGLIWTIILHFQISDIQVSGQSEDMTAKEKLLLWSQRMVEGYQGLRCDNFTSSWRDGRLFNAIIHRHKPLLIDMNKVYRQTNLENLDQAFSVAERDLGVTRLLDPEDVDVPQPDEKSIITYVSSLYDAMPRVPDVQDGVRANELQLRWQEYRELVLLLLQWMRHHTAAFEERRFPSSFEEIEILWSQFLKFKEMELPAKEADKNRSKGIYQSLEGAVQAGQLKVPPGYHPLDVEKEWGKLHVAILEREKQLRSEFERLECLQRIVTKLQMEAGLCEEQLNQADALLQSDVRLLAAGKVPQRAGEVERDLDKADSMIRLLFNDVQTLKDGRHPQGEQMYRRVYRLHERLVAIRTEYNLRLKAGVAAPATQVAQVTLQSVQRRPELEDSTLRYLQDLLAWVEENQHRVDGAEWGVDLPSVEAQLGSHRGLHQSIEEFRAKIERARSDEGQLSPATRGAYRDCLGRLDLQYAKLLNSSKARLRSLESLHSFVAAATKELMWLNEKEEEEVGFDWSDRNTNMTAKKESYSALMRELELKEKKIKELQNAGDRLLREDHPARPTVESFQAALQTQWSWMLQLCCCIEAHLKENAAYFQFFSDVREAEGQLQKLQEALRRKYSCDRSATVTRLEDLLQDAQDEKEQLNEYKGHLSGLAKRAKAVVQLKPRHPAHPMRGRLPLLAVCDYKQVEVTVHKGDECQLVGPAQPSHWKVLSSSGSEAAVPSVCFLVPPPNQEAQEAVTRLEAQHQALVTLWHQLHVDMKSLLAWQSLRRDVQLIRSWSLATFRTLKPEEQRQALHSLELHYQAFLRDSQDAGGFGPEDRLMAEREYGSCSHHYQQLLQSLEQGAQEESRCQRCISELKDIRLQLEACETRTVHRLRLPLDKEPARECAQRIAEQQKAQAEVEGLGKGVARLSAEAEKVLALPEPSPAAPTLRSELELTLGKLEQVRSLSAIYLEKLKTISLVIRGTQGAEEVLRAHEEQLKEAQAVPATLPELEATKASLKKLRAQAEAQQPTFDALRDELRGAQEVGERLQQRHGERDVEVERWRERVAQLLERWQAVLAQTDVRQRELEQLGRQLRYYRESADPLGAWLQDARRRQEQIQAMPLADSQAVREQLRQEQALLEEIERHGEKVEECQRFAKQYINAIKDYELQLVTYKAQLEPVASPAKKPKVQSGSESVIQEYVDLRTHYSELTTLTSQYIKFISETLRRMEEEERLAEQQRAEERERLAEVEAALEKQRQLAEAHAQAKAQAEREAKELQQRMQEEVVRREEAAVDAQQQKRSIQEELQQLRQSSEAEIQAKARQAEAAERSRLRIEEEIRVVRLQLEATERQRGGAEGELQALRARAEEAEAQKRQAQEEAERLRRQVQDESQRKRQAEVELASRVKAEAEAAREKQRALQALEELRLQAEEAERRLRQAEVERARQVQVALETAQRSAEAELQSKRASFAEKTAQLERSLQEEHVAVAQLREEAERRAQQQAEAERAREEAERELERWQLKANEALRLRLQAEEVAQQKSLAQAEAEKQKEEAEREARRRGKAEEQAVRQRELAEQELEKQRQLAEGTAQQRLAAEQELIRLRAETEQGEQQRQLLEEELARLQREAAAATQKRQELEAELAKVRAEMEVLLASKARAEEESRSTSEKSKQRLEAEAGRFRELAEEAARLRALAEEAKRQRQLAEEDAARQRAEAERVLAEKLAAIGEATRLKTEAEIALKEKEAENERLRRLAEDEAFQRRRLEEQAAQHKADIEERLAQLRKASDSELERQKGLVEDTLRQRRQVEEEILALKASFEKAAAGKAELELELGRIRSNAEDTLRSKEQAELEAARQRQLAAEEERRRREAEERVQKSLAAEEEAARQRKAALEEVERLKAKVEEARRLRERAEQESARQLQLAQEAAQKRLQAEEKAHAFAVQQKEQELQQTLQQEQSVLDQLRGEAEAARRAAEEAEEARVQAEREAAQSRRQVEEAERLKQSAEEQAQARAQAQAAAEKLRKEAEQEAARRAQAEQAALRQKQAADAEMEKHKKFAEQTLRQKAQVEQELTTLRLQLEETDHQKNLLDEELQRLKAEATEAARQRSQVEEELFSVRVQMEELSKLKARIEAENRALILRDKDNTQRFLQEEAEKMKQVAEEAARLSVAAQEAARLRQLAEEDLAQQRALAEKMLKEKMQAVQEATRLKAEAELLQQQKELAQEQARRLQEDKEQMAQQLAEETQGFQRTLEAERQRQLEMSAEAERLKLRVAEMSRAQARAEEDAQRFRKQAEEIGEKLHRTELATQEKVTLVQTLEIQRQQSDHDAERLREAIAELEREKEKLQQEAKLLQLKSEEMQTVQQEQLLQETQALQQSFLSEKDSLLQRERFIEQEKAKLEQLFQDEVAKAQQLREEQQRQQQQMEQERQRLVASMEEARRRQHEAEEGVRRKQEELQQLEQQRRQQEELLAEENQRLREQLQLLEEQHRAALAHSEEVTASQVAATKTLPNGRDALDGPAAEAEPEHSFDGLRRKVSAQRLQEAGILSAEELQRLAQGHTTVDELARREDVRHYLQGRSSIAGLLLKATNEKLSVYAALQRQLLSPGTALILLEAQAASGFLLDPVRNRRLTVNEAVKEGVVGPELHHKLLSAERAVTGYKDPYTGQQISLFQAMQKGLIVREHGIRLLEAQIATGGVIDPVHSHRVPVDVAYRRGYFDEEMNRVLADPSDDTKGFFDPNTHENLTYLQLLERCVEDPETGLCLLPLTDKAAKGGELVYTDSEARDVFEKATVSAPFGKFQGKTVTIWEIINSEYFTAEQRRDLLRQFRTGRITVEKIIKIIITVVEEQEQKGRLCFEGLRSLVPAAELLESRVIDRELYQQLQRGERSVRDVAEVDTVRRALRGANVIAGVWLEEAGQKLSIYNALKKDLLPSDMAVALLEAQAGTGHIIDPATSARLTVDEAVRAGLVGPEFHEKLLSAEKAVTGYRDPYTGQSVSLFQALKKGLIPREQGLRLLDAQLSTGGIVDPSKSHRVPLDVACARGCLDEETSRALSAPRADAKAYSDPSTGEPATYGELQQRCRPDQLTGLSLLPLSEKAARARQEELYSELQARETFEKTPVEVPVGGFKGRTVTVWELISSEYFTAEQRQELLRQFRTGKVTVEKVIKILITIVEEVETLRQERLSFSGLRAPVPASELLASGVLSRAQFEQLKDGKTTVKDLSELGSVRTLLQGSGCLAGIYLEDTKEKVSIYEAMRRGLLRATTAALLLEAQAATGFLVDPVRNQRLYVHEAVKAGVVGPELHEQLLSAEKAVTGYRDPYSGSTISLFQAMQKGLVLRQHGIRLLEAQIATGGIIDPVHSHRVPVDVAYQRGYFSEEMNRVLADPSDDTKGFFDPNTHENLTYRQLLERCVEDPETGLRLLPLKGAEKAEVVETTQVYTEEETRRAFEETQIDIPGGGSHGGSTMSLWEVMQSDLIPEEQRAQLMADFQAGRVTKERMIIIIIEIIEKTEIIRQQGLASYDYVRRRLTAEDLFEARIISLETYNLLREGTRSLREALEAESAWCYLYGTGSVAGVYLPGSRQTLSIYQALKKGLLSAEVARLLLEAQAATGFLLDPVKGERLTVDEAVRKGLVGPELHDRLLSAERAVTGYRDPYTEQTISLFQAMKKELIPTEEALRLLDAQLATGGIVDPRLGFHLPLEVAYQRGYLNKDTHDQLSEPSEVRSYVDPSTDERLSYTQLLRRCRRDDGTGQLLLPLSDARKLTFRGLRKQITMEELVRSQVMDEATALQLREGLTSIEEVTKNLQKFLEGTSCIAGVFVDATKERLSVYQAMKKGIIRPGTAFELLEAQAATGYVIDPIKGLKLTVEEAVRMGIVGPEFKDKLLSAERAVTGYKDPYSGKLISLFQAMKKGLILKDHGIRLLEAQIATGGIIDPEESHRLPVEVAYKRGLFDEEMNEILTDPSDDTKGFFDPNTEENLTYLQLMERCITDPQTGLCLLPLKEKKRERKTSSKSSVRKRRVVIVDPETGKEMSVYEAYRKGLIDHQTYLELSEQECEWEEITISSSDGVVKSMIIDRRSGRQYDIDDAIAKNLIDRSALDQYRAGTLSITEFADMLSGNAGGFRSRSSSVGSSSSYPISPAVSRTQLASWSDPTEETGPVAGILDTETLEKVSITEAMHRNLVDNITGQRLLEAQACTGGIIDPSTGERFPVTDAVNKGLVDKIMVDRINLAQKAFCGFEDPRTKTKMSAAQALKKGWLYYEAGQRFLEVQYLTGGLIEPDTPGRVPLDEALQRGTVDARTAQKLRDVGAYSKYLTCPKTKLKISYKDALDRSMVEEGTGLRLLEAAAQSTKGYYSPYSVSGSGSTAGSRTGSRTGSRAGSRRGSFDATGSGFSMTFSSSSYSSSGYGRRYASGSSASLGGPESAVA

B1: Pab2: anti-plectin-1 antibody; heavy chain variable region SEQ ID NO: 23, light chain variable region SEQ ID NO: 45 (antibody, V domains shown)
VH: EVQLVESGGDLVKPGGSLKLSCAASGFTFSRYGMSWVRQTPDKRLEWVATISIGGTYTYYPDSMKGRFTISRDNAKNTLYLQMSSLKSEDTAMYYCARRGYGNYSYYGMDYWGQGTSVTVSS
VL: DIVMTQAAFSNPVTLGTSASISCRSSKSLLHSNGITYLYWYLQKPGQSPQLLIYQMSNLASGVPDRFSSSGSGTDFTLRISRVEAEDVGVYYCAQNLELPLTFGAGTKLELK
affinity among anti-plectin-1 antibodies tested: highest affinity
